Source: patent US20060198852A1
Where two headings read alike, the source gives them in different places.

Assays:
[1] = target: bovine type I collagen (bovine) (UniProt P02453); test: SPR, equilibrium responses, one-site-binding nonlinear regression
[2] = target: bovine type I collagen (bovine) (UniProt P02453); test: SPR, BIAcore 3000, collagen immobilized on CM5 chip
[3] = target: bovine type I collagen (bovine) (UniProt P02453); test: SPR, from the kinetic rates ka and kd; SPR, from ka and kd
[4] = target: bovine type I collagen (bovine) (UniProt P02453)
[5] = target: bovine type I collagen (bovine) (UniProt P02453); test: SPR, Scatchard analysis of equilibrium responses; SPR, Scatchard analysis
[6] = target: bovine type I collagen (bovine) (UniProt P02453); remark: listed apart in the source

Sequence of UniProt P02453 (P02453 162-1217 limits assumed, chain 1 of 2): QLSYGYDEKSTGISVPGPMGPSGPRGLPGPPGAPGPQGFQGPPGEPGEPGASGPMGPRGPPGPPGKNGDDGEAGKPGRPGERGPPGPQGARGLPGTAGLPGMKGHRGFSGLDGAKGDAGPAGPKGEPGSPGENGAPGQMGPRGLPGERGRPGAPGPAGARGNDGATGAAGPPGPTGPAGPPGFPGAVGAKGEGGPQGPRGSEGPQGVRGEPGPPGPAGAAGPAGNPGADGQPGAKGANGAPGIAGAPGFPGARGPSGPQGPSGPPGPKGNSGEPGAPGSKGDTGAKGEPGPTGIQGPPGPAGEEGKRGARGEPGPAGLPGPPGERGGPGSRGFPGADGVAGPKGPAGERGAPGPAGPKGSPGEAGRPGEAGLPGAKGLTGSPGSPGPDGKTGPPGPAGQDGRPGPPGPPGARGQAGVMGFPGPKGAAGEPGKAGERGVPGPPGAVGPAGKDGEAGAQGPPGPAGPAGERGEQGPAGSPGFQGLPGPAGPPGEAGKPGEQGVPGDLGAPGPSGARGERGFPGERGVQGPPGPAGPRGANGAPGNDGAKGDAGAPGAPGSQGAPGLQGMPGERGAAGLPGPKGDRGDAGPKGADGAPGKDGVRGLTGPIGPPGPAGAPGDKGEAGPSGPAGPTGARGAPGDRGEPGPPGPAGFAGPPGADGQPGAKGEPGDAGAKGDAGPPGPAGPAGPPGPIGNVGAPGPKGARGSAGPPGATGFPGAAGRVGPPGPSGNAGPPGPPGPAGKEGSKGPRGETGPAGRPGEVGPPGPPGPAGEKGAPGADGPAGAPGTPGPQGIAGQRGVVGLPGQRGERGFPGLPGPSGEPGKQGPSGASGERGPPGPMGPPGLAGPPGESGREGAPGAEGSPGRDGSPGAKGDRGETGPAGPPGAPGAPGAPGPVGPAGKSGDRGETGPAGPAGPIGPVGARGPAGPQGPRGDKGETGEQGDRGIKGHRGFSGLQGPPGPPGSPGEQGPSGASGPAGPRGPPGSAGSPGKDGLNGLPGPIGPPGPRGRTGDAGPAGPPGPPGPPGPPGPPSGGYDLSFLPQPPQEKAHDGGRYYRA
Sequence of UniProt P02453 (P02465 80-1117 limits assumed, chain 2 of 2, further chain): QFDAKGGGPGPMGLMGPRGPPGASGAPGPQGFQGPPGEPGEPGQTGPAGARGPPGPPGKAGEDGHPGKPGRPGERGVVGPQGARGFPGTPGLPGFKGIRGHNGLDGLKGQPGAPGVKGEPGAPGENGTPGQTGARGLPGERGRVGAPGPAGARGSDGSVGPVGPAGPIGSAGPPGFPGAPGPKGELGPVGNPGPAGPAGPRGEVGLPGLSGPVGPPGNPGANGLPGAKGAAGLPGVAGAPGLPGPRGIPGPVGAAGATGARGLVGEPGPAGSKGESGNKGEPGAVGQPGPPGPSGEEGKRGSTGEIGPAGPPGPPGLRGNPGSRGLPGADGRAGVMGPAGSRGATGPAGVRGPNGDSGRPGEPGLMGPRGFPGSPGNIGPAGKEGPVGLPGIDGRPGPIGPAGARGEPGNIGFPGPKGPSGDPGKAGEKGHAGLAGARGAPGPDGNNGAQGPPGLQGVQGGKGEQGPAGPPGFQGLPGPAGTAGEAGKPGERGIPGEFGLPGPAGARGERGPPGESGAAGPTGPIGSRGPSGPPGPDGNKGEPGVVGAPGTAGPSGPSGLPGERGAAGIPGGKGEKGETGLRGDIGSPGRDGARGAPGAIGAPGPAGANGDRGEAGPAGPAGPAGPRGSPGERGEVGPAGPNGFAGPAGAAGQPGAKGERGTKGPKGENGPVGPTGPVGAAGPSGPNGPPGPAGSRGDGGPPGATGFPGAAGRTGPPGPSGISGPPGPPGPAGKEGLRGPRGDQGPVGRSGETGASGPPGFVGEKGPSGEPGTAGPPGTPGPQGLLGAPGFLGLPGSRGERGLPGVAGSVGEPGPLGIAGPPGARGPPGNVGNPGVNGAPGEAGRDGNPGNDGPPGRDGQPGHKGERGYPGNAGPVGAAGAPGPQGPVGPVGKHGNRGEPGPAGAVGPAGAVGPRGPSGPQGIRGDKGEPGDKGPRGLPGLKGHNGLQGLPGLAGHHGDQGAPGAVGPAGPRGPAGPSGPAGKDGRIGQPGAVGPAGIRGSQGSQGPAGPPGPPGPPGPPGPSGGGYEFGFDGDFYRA

Substance | Kd [1] | koff [2] | kon [2] | Kd [3] | Kd [4] | Kd [5] | Kd [6]
rBA0871A, recombinant His-tag fusion protein of the A region (amino acid residues 42-765) of BA0871 | 3200 nM | 0.0043 s⁻¹ | 2800 M⁻¹ s⁻¹ | 1600 nM | 190 nM | 2400 nM | 
rBA5258A, recombinant His-tag fusion protein of the A region (amino acid residues 32-366) of BA5258 | 900 nM |  |  |  | 30 nM |  | 600 nM
